Measured values: patent US20190359687A1 (Bayer, published 2019)
Where a chain is given by its changes, count along the chain named. No end group written: not given here. *: point of attachment. Biotin = O=C1N[C@H]2[C@H](CS[C@H]2CCCCC(=O)*)N1

Tests used:
[1] = biological target: T1, human glycophorin A in the red blood cell membrane (human, UniProt P02724 20-150); test: SPR, human RBC membranes, Fab
T1 construct: whole, on cells; used for intact RBC, isolated RBC membranes and transfected cells; the assay field tells which; also called GPA; hGPA
T1 sequence (looked up): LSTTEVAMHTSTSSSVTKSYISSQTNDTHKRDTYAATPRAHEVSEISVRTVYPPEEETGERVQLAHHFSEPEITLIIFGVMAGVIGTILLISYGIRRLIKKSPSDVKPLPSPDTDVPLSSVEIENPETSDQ
Procedure: Kinetic analysis of the antibody binding to human red blood cell membranes was also performed using surface plasmon resonance (SPR) using a Biacore instrument. In this assay membranes prepared from human red blood cells were attached to a L1 sensor matrix and antibodies were flowed over the RBC membranes.

GP7 peptide = biological target: T2, GP7 peptide (human); test: peptide ELISA, Fab
T2 peptide: Biotin-SVRTVYPP
Source text: (§1) These peptides were attached to the surface of a streptavidin coated plate via a biotin moiety that was present at the N-terminus of each peptide.

GP10 peptide = biological target: T3, GP10 peptide (human); test: peptide ELISA, Fab
T3 peptide: Biotin-TVYPPEEE
Source text: as §1

GP11 peptide = biological target: T4, GP11 peptide (human); test: peptide ELISA, Fab
T4 peptide: Biotin-VYPPEEET
Source text: as §1

GP12 peptide = biological target: T5, GP12 peptide (human); test: peptide ELISA, Fab
T5 peptide: Biotin-YPPEEETG
Source text: as §1

GP13 peptide = biological target: T6, GP13 peptide (human); test: peptide ELISA, Fab
T6 peptide: Biotin-PPEEETGE
Source text: as §1

GP14 peptide = biological target: T7, GP14 peptide (human); test: peptide ELISA, Fab
T7 peptide: Biotin-PEEETGER
Source text: as §1

GP15 peptide = biological target: T8, GP15 peptide (human); test: peptide ELISA, Fab
T8 peptide: Biotin-EEETGERV
Source text: as §1

GP16 peptide = biological target: T9, GP16 peptide (human); test: peptide ELISA, Fab
T9 peptide: Biotin-EETGERVQ
Source text: as §1

[2] = biological target: T10, GP10 peptide of the human GPA ectodomain (human, not fully specified (N-terminus)); test: ELISA, Fab 0.5 ug/ml on biotin-peptide on streptavidin plate
T10 peptide: TVYPPEEE
Source text: as §1

[3] = biological target: T11, GP11 peptide of the human GPA ectodomain (human, not fully specified (N-terminus)); test: as above
T11 peptide: VYPPEEET
Source text: as §1

[4] = biological target: T12, GP12 peptide of the human GPA ectodomain (human, not fully specified (N-terminus)); test: as above
T12 peptide: YPPEEETG
Source text: as §1

[5] = biological target: T13, GP13 peptide of the human GPA ectodomain (human, not fully specified (N-terminus)); test: as above
T13 peptide: PPEEETGE
Source text: as §1

[6] = biological target: T14, GP14 peptide of the human GPA ectodomain (human, not fully specified (N-terminus)); test: as above
T14 peptide: PEEETGER
Source text: as §1

[7] = biological target: T15, GP15 peptide of the human GPA ectodomain (human, not fully specified (N-terminus)); test: as above
T15 peptide: EEETGERV
Source text: as §1

[8] = biological target: T16, GP16 peptide of the human GPA ectodomain (human, not fully specified (N-terminus)); test: as above
T16 peptide: EETGERVQ
Source text: as §1

[9] = biological target: T17, GP5 peptide of the human GPA ectodomain (human, N-terminal biotin); test: as above
T17 construct: Residues 42 to 61 of the human GPA extracellular domain
Source text: as §1

[10] = biological target: T18, GP7 peptide of the human GPA ectodomain (human, not fully specified (N-terminus)); test: as above
T18 peptide: SVRTVYPP
Source text: as §1

[11] = biological target: T19, GP8 peptide of the human GPA ectodomain (human, not fully specified (N-terminus)); test: as above
T19 peptide: VRTVYPPE
Source text: as §1

[12] = biological target: T20, GP9 peptide of the human GPA ectodomain (human, not fully specified (N-terminus)); test: as above
T20 peptide: RTVYPPEE
Source text: as §1

[13] = biological target: T10, GP10 peptide of the human GPA ectodomain; test: ELISA, Fab 0.05 ug/ml on biotin-peptide on streptavidin plate
Source text: as §1

[14] = biological target: T11, GP11 peptide of the human GPA ectodomain; test: as above
Source text: as §1

[15] = biological target: T12, GP12 peptide of the human GPA ectodomain; test: as above
Source text: as §1

[16] = biological target: T13, GP13 peptide of the human GPA ectodomain; test: as above
Source text: as §1

[17] = biological target: T14, GP14 peptide of the human GPA ectodomain; test: as above
Source text: as §1

[18] = biological target: T15, GP15 peptide of the human GPA ectodomain; test: as above
Source text: as §1

[19] = biological target: T16, GP16 peptide of the human GPA ectodomain; test: as above
Source text: as §1

[20] = biological target: T17, GP5 peptide of the human GPA ectodomain; test: as above
Source text: as §1

[21] = biological target: T18, GP7 peptide of the human GPA ectodomain; test: as above
Source text: as §1

[22] = biological target: T19, GP8 peptide of the human GPA ectodomain; test: as above
Source text: as §1

[23] = biological target: T20, GP9 peptide of the human GPA ectodomain; test: as above
Source text: as §1

[24] = biological target: T21, Cynomolgus monkey glycophorin A on Cynomolgus monkey red blood cells or red blood cell membranes (Cynomolgus monkey); test: Fab 7 ug/ml on intact cyno RBC, unbound Fab by ELISA; pre-dilution
T21 construct: whole, on cells; also called Cyno RBC; Cynomolgus monkey RBC membranes

[25] = biological target: T22, human glycophorin A on human red blood cells or red blood cell membranes (human, UniProt P02724 20-150); test: Fab 7 ug/ml on intact human RBC, unbound Fab by ELISA; pre-dilution
T22 construct: whole, on cells; also called hRBC; human RBC membranes
T22 sequence (looked up): T1 sequence (looked up)

[26] = biological target: T21, Cynomolgus monkey glycophorin A on …; test: Fab on intact cyno RBC, unbound Fab by ELISA; 0 min after 200-fold dilution
Procedure: (§2) The binding of affinity matured Fab antibodies to intact Cynomolgus monkey RBC was measured. Cynomolgus monkey RBC were isolated from fresh anti-coagulated blood by centrifugation through a ficol gradient and washing in PBS buffer. RBC diluted to 1/10th of normal hematocrit were incubated with the Fab at a final concentration of 7 ug/ml for 1 hour at room temperature on a rotating shaker after which a sample was taken and the RBC were pelleted by centrifugation and the supernatant was collected. The remaining RBC suspension was diluted 200-fold in PBS buffer and incubated for a total of 2 hours at room temperature on a rotating shaker and samples were removed at 0, 5 min, 20 min, 1 h and 2 h and the RBC pelleted and the supernatant collected. […] The amount of Fab in the supernatants was then measured using an ELISA assay and the results used to calculate the percentage of the input Fab that was bound to the RBC.

[27] = biological target: T21, Cynomolgus monkey glycophorin A on …; test: Fab on intact cyno RBC, unbound Fab by ELISA; 5 min after 200-fold dilution
[28] = biological target: T22, human glycophorin A on human red blood …; test: Fab on intact human RBC, unbound Fab by ELISA; 0 min after 200-fold dilution
Procedure: (§3) The binding of affinity matured Fab antibodies to intact human RBC was also measured. Human RBC were isolated from fresh anti-coagulated normal human blood by centrifugation through a ficol gradient and washing in PBS buffer. RBC diluted to 1/10th of normal hematocrit were incubated with purified Fab antibodies at a final concentration of 7 ug/ml for 1 hour at room temperature on a rotating shaker after which a sample was taken and the RBC were pelleted by centrifugation and the supernatant was collected. The remaining RBC suspension was diluted 200-fold in PBS buffer and incubated for a total of 2 hours at room temperature on a rotating shaker and samples were removed at 0, 5 min, 20 min, 1 h and 2 h and the RBC pelleted and the supernatant collected. The amount of Fab in the supernatants was then measured using an ELISA assay and the results used to calculate the percentage of the input Fab that was bound to the RBC. […] The percentage that remains bound after 200-fold dilution of the RBC suspension is an indication of the overall strength of the binding to human RBC.

[29] = biological target: T22, human glycophorin A on human red blood …; test: Fab on intact human RBC, unbound Fab by ELISA; 5 min after 200-fold dilution
Procedure: as §3

[30] = biological target: T21, Cynomolgus monkey glycophorin A on …; test: Fab on intact cyno RBC, unbound Fab by ELISA; 20 min after 200-fold dilution
Procedure: as §2

[31] = biological target: T21, Cynomolgus monkey glycophorin A on …; test: Fab on intact cyno RBC, unbound Fab by ELISA; 60 min after 200-fold dilution
[32] = biological target: T22, human glycophorin A on human red blood …; test: Fab on intact human RBC, unbound Fab by ELISA; 20 min after 200-fold dilution
Procedure: as §3

[33] = biological target: T22, human glycophorin A on human red blood …; test: Fab on intact human RBC, unbound Fab by ELISA; 60 min after 200-fold dilution
[34] = biological target: T21, Cynomolgus monkey glycophorin A on …; test: Fab on intact cyno RBC, unbound Fab by ELISA; 120 min after 200-fold dilution
Procedure: as §2

[35] = biological target: T22, human glycophorin A on human red blood …; test: Fab on intact human RBC, unbound Fab by ELISA; 120 min after 200-fold dilution
Procedure: as §3

B1: TPP-5907 Fab (Fab, V domains shown)
VH: EVQLVQSGAEVKKPGASVKVSCKASGYTFTTYTIHWVRQAPGQGLEWMGYINPGSGYTRYNPKFKGRVTMTRDKSTSTAYMELRSLRSDDTAVYYCQTGTRDYWGQGTTVTVSS
VL: DIQLTQSPSFLSASVGDRVTITCRASSSVSYIYWFQQKPGKAPKLLIYATSTLQSGVPSRFSGSGSGTEYTLTISSLQPEDFATYYCHQRNSFPYTFGQGTKLEIKR
For B1, the “fold improvement of affinity against the parental antibody” value [1] was roughly 200 fold.

B2: TPP-7792 Fab (Fab, V domains shown)
VH: B1 VH with T33A, G54S, Q97W
VL: DIQLTQSPSFLSASVGDRVTITCRASSSVRYIYWFQQKPGKAPKLLIYATSFRQSGVPSRFSGSGSGTEYTLTISSLQPEDFATYYCHQRNSFPYTFGQGTKLEIK
notes: as m92
B2: no binding (tested: 0.5 ug/ml) (GP7 peptide); no binding (tested: 0.5 ug/ml) (GP10 peptide); no binding (tested: 0.5 ug/ml) (GP11 peptide). B2: no binding (tested: 0.5 ug/ml) (GP12 peptide); no binding (tested: 0.5 ug/ml) (GP13 peptide); no binding (tested: 0.5 ug/ml) (GP14 peptide). B2: no binding (tested: 0.5 ug/ml) (GP15 peptide); no binding (tested: 0.5 ug/ml) (GP16 peptide).

B3: TPP-7792, affinity matured 6C12 Fab (Fab, V domains shown)
VH: B1 VH with T33A, G54S, Q97W
VL: B2 VL
notes: Tested as Fab with a 6xHIS tag
B3 was tested, and the “binding signal in ELISA (relative light units)” value [2] was 71 RLU, the “binding signal in ELISA (relative light units)” value [3] was 2 RLU and the “binding signal in ELISA (relative light units)” value [4] was 0 RLU. For the same binder, the “binding signal in ELISA (relative light units)” value [5] was 0 RLU, the “binding signal in ELISA (relative light units)” value [6] was 0 RLU and the “binding signal in ELISA (relative light units)” value [7] was 0 RLU. The “binding signal in ELISA (relative light units)” value [8] was 0 RLU, the “binding signal in ELISA (relative light units)” value [9] was 7230 RLU and the “binding signal in ELISA (relative light units)” value [10] was 1 RLU. For the same binder, the “binding signal in ELISA (relative light units)” value [11] was 5130 RLU, the “binding signal in ELISA (relative light units)” value [12] was 534 RLU and the “binding signal in ELISA (relative light units)” value [13] was 14 RLU. The “binding signal in ELISA (relative light units)” value [14] was 0 RLU, the “binding signal in ELISA (relative light units)” value [15] was -1 RLU and the “binding signal in ELISA (relative light units)” value [16] was -1 RLU. The “binding signal in ELISA (relative light units)” value [17] was -1 RLU, the “binding signal in ELISA (relative light units)” value [18] was -1 RLU and the “binding signal in ELISA (relative light units)” value [19] was -1 RLU. The “binding signal in ELISA (relative light units)” value [20] was 3500 RLU, the “binding signal in ELISA (relative light units)” value [21] was 0 RLU and the “binding signal in ELISA (relative light units)” value [22] was 291 RLU. The “binding signal in ELISA (relative light units)” value [23] was 18 RLU, the “percentage of input antibody bound” value [24] was 92% and the “percentage of input antibody bound” value [25] was 98%. For the same binder, the “percentage of input antibody bound” value [26] was 96%, the “percentage of input antibody bound” value [27] was 94% and the “percentage of input antibody bound” value [28] was 97%. For the same binder, the “percentage of input antibody bound” value [29] was 97%, the “percentage of input antibody bound” value [30] was 93% and the “percentage of input antibody bound” value [31] was 92%. For the same binder, the “percentage of input antibody bound” value [32] was 96%, the “percentage of input antibody bound” value [33] was 97% and the “percentage of input antibody bound” value [34] was 89%. For the same binder, the “percentage of input antibody bound” value [35] was 96%.

B4: TPP-7790 Fab (Fab, V domains shown)
VH: B1 VH with T33A, G54S, G66H, Q97W
VL: B2 VL with R53L
notes: as m92
B4: no binding (tested: 0.5 ug/ml) (GP7 peptide); no binding (tested: 0.5 ug/ml) (GP10 peptide); no binding (tested: 0.5 ug/ml) (GP11 peptide). B4: no binding (tested: 0.5 ug/ml) (GP12 peptide); no binding (tested: 0.5 ug/ml) (GP13 peptide); no binding (tested: 0.5 ug/ml) (GP14 peptide). B4: no binding (tested: 0.5 ug/ml) (GP15 peptide); no binding (tested: 0.5 ug/ml) (GP16 peptide).
